The text below walks through data of US20110177059A1, “PSA AND KLK2 AS THERAPEUTIC TARGETS AND MOLECULES INHIBITING PSA AND KLK2” (UNIVERSITY OF ROCHESTER, priority 2008, published 2011).

This assay deals with LN-PSA cells. In words: MTT assay with PSA proteinase inhibitor, LN-PSA cells. In kind it is cell-based, human. As to conditions: 1000 ng/ml, vs vehicle 1x PBS. The procedure:
Cells of stable transfected LNCaP, CWR22rv1, PC-3 and Du145 sublines were seeded in 24-well tissue culture plates at a density of 5000 cells/well in media containing 10% CD-FBS with 1 nM DHT. At the indicated time points, the medium was replenished and determined cell proliferation by MTT [3-(4,5-dimethylthiazol-2-yl)-2,5-diphenyltetrazolium bromide assay. Serum-free medium containing MTT (0.5 mg/ml, Sigma) was added into each well and after 4 h incubation at 37° C., cellular formazan product was dissolved with acidic isopropanol, and the absorbance at OD595 was measured by spectrophotometry (Beckman Du640B). 6 replicate wells were used for each sample at each time point. a-Antichymotrypsin (MP Biomedicals, Inc) at a concentration of 1000 ng/ml was used in the MTT assay as a PSA proteinase inhibitor to treat the LNCaP cell sublines. LN-PSA, LN-siPSA cells were grown in 100-mm dishes. The cells were digested by trypsin-EDTA, harvested as many as 1×10^6 cells, and fixed them in 70% ethanol at 4° C. After 12 h, cells were centrifuged (1000 g, 7 min, 4° C.), and resuspended in PBS containing 0.05 mg/ml RNase A (Sigma), and then incubated at room temperature for 30min. After washing, the cells were stained with […] propidium iodide, filtered through a […], and analyzed 10,000 cells by flow cytometry (FACSCalibur, BD Company) with MODFIT software (Verity Software House, Inc).

B1: α1-antichymotrypsin: PSA protease inhibitor (MP Biomedicals), used at 1000 ng/ml (protein, UniProt P01011 24-423, looked up)
Alpha-1-antichymotrypsin: HPNSPLDEENLTQENQDRGTHVDLGLASANVDFAFSLYKQLVLKAPDKNVIFSPLSISTALAFLSLGAHNTTLTEILKGLKFNLTETSEAEIHQSFQHLLRTLNQSSDELQLSMGNAMFVKEQLSLLDRFTEDAKRLYGSEAFATDFQDSAAAKKLINDYVKNGTRGKITDLIKDLDSQTMMVLVNYIFFKAKWEMPFDPQDTHQSRFYLSKKKWVMVPMMSLHHLTIPYFRDEELSCTVVELKYTGNASALFILPDQDKMEEVEAMLLPETLKRWRDSLEFREIGELYLPKFSISRDYNLNDILLQLGIEEAFTSKADLSGITGARNLAVSQVVHKAVLDVFEEGTEASAATAVKITLLSALVETRTIVRFNRPFLMIIVPTDTQNIFFMSKVTNPKQA
Turning to B1, the “PSA-induced cell growth (MTT)” value is “limited influence”. Besides, the “PSA-induced cell growth (MTT)” value (listed as ACT) is “not significantly changed”.
